From PMC5452035, “Structural insight into recognition of phosphorylated threonine‐4 of RNA polymerase II C‐terminal domain by Rtt103p” (EMBO Reports, 2017) come the findings set out here.

What all share (assay): fluorescence polarisation; fluorescence anisotropy; Rtt103p CID titrated into 10 nM N-terminally FAM-labelled CTD peptide; 10°C; 35 mM KH2PO4, 100 mM KCl, pH 6.8; 1:1 model with non-specific binding (DynaFit)
Assay [1] addresses FAM-PSY(pS)P(pT)….
In assay [2] the target is FAM-PSYSP(pT)SPSYSP(pT)SPS.
For assay [3], the target named is FAM-PSYSP(pT)….
Assay [4] addresses FAM-PSY(pS)….
Assay [5] addresses FAM-….

As for “Rtt103p CTD-interacting domain (CID) (3-131-6xHIS) (from UniProt Q05543 3-131) (domain or fragment)”, the Kd (as a rule, the constant that tells how readily two partners part at equilibrium) came out at 43 µM in assay [1]; 6 µM in assay [2]; 15 µM in assay [3]; 6 µM in assay [4]; 64 µM in assay [5].
